From the NTF2 design screens of Basanta et al. (2020) come the findings set out here.

The nature of the data set: protease stability score; higher = more stable; yeast display proteolysis, trypsin and chymotrypsin.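 Further: relative to predicted unfolded state with 0 unfolded-like and 1 meaning tenfold more protease.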
The sequence “SREEKEIKEIWELLVRSWLTGDEETLTHLLDPNARSVINGREYHGRETIAHELTRHLYELRIKDIELHHVDIIGDKVKIDSRVEYHFNGRETELKVEIVALKINGRWRLKDNIIK” had a protease stability score of 1.47.

The sequence “SREHKEAEDALRQWLETLRTGDERTMHELFDPNVRLHINGKEIHGREKVLTQLEHELKRFKNVRYELESIDITEHHVRVFGTSHVNGVEEKLEIVILKWDGRWRVQELYVHRV” registered a protease stability score of 1.67.

In the case of “SRESEEAKDDWEKIINDLRTGDFRSLRELFDPNVRLETENHEFHGWETAEHMVKRFDHIHVRREHFDHIEIQGEKVILDGTMRMEFIINGVVYEKEQRVIIIFLKYNGRWLIKEVEFI”, the protease stability score was 0.759.

In the case of “SRIEKLIEHLVHLWLEIWRTGDEHSFTRLLDPHVRLRIGDKHFIGREDVVKFLRDHEKEWREDDVEIRDIRTQGDFLEVEITITGRFNGRDITREFRITMIVVDGRVKEIRISYE”, the protease stability score worked out at 2.05.

Consider “SRKDEHTHHLLHLFWEIFMTGDEERWTQLLDPNMRTEIDGKDLHGREDAIRFMIERLRQLGFDHMRLHHLENQGEKAHIDGTLEVGDKLVRVHFSTKIVNGRIKELTIKFH”, for which the protease stability score was 1.02.

Sequence “SSDKRDAHFAMDLYYEIHLTGDEDRWRHMADPNVRLHVGEKDFHGRELWFKFMHDFGLDKIEIELKDIEVQGEKVHLDGIIRFDGREHKVEVDLRKINGRWIIDEERYK” gave a protease stability score of 1.13.

In turn, “SSEEEDIEWATEVLVMSFITGDWKLSHKLMDPNVLSIVNGREFHGRELAVKHLHEMTEKIKGLRIETHDLKHINIFNGRARVHSIVRGDINGRKVDSMIDVITNKFDGRWVIESVQFI” yielded a protease stability score of 1.45.

The sequence “SSEEHDAKNMHKMFREAMMTGDEDLLKNLLDPHVRLTFNGKDFHGWDRVYELFRKRLEHLGITWKDWDLHIIETQGDKVELNSTLHGRVGDKHVDDHTTLFIRKIDGQWVLTEVRIG” had a protease stability score of 1.46.

The sequence “SSEEKRDKDAVELFLKILHTGNFELFRELFDPNTRWEYGDKELIGMELIVTWWFEFVRDRGVEVELHRIDRINGRVVLETTMRIGDKQTSTHVHVIVINGVFHEVRFRFH” returned a protease stability score of 1.29.

Sequence “SSHEEYMIRLVLQIIRLYLTGDEETIRKMADPNTYMKITIGDKDIEAHGREDVIRVREEIRKQIRIHHVDVTSIKVIDGRLVIHGILDGEYDGKRDEVDVRIEIIIVNGKWTSEHARVH” showed a protease stability score of 1.05.

In turn, “SSQEKFLKELVEIWVELWRTGNEEAFKRLADPDAKNDVNGVYSHGMENVEKLLKHFGIKHVEINDVKVQGDKVIMDGIIEFNGVTIKEHVEIVIVNGRFKELRIRRE” displayed a protease stability score of 0.788.

“STEEEEAKKFSDIVLKAFDTGDEDLYRDLADPDTRSIINGVEKHGWKDIARHIKRIDHSDTHWDRVEMRVVNGQARVHVKGHIDVTIDGQRFVLRVTWHIIVTKIDGRWHLEELSLEVS” showed a protease stability score of 1.31.

Consider “STEEEELRDYLEILDHLWKTGDFDRLLNLIDPHVRLEVNGREHHGMRWFETIIRKLGHDNISVHINNEKVHIVDGRAHWEGKKILIYDGRFHDFHTHLFFLKIDGKWKLKEVEYH”, for which the protease stability score was 1.26.

Consider “STEEREVYEWVHELLNAFNTGDEDFYYERMDPHVRFESQFNGKELDIVGREKVLKWTKTFWDDLGVDHSKLRSFRIQGDKLILHMEVTINGRHIQVDFFHVIVDGKLHSEEIRIH”, for which the protease stability score was found to be 0.649.

Sequence “STLEEHVFRMAYEIITDLETGDEEYYKKRADPDMYVHIRIGDKEVEIHGREHFIQWVKRLFEEIRIHWRIRDMHIVDGVYRFHTELEIRIGDKEHRIKSEVKVVVVNGKIKQLEIRIK” returned a protease stability score of 2.

“STREEETRRISDMIVKSLMTGDWRTFHDLLDPNVKVEINGKEMHGWKAWEDYIREMGIKVFDYHRIEVDENHLLMDGIDKVDGREHRSHYEITIIDGRIRRVEIRHK” registered a protease stability score of 1.1.

Turning to “SYHEKEALDLYRMTIHNYLTGDWKEWHRLFDPHVRIRIGDKELHGMENFAKWEEDLEKDLGVDHVEIRLRDMEVQGDKFTSDGELRLHIDGRTIRHKVEFHLEVINGRIKSHRINIH”, the protease stability score was determined as 1.04.

“TDDEEIWKIAIKMLRSAMHTGDEDTIKHLLDPNVRIEINGREIIGREIYAKHLREIRVDVERWEDHHIEVQGEFMHVKGRVVLTEEINGQEVREDVKLHVLVLKIDGQWRITSLYFR” had a protease stability score of 0.754.

On to “TDDEREAVRFSEEVMHSFITGDEEHLDRLMDPNTKLTVNGKEIHGRQDVLEFIKRYRRELGVKYSEFVVHSVDDFDGRLRNNTELNINVDGKHIRLDTRVDMIKFNGRWQLHSIRFD”, for which the protease stability score is 1.44.

Take “TDEDEAAELIIRLLEELHHTGDEDKLRDLMDPHVRMDIDGKDFHGRETYLEHLHHRLVNWGVDRIKVEIRLKHSEIQGEKLILETDWIVIFDGVRYEMKVRLILIKVNGRWVLKSSHFK”: the protease stability score turned out to be 1.32.

As for “TDEDRELHEAAELLIESTWTGDFDFLLELLDPNVRLVINGKHDHGREDIWEVLRRLLERLGLDRVRVKIKHIDSFDGRLHLNINLNFNGRQFRYHYESYKVNGQWVVRRIEVREK”, the protease stability score came to 1.89.

In turn, “TDEEELAERLARIMIHLFLTGNEEIMSKLLDPDVRSWVNGQEFHGREEEAKVVRKMIEEWRFHDMHIHDVHVINGRLHVDSRVDNRVGDKTIDIRTELRFDVVNGRLKILEWHFT” had a protease stability score of 0.341.

Sequence “TDEEELLHRILDEIEKALLTGDEDIIHRLFDPHVRFHVNGRHIVGRHEWSRWVNDHRKRFKNIQIRMRVEEKDVIDGRMHSRTKLHIIFNGVRYEITQEINIDVIDGRLKNVIVHDE” registered a protease stability score of 0.725.

Take “TDEEEMLRNFWHELIHALHTGDEELFEELADPDTRWYFENRVVIGRETVRNMIDELRIKEVRVERMRIQGDKFHAKLTQRGQINGREVNTETNLHVDIYNGRLKSVELRVK”: the protease stability score came to 0.888.

As to “TDEEKETEEHRKHFEHYERTGDWRELERLFDPNARLIIGDKILHGRELVTRWMFEFVKEMRINHIELHTMEIQGEKIHLDITVHVKFNGQERDIRVTEIHKKFDGRWTIEQIHFN”, the protease stability score came out at 1.46.

“TDEEKSVEELLEKIEHANDTGDFELHKRLADPHVRVLVNGVELHGRHVLMEWLRELFERFKNVTFRLNLREVEFQGEWVFLRIELTVHVNGRTHHHDSIYIIHKVDGRWHITEVRFH” displayed a protease stability score of 1.34.

The sequence “TDEKRDLDDWLHLLLHAIRTGDFRIEEKLADPNARLEFNGKEFIGMHHILNFLIEWRLHHMDIKHIEKQGDYLHIDSRLDVDFDGQRTILETHLVSLKINGRWILHSMSIG” gave a protease stability score of 1.28.

In turn, “TDERDRYKHFLHLFRHLIKTGDEDVLANNADPHVKFHIHIGDKEREHHGMESMVKIFKEWRIHHLHIESFDVQGDKLIALVHVDGIINGRHHSTTVNIILTFVNGREKEVNIHLT” displayed a protease stability score of 1.74.

Regarding “TDKEEETKENAEKLTKHILTGNWEEFFNLADPNVRMHIQQGDKRINRHGREDAYHEYKDLERNLGIDHMHIKDIRVQGDWVHIHLEYRYGDKRFEVEIVLLIVDGRLTEVNVTIR”, the protease stability score is 1.09.

As to “TDLEELFDYAIDLLRSLLLTGDEHMSVRLADPNTKLEVNGRYIHGREKFREWFRWFLEHLRFDHLHIHSVETQGDYAFMDSRVHLRYGDKVIEFITHQIVLKFDGRWYLHSMEIR”, the protease stability score is 0.587.

“TDLKEYVERMLELLRKAIETGDETTLTKLVDPHVRLEVNGREFHGWKFWHMIVREIRMRDLELHHVEIQGDKMEVDGTLHLEINGKDDYRKVRLIAEKFDGRWVFTSVHFE”: the protease stability score was determined as 1.72.

As to “TDRHEIIIHRMKRLMLMELTGDEKLWERLVDPDVRIIFIFNGRRHEFHGREKALERLHDWWDHLRIDHLEVRRYDVINGRARTDMESHDTYDGQHYVIKFELVVQVIDGRVHSVEMIFK”, the protease stability score worked out at 1.44.

For the sequence “TDVEEQVHVAIELHLRTLLTGDEHLSEKLADPHVRILIDGQDYHGRTEWVKWIHTFHKRVDHHQIDVTTLSVQGDKIRIHFELKLHVNGVDLRFHILLIIEKYNGVWIMSEVHIS”, the protease stability score was 1.67.

Consider “TEDDEHLEEEAEEYKEYVRTGDWKKIFELADPHTKIDIGNYKRHGMEDFLRDVIHVYTKLGVTIEHHVHDVRVINGRAHVNMEVRVHYGEKDERIKTTLIMRKVDGRWKLTSIHFK”, for which the protease stability score stood at 1.15.

The sequence “TEDDEILREALEIWRYVEQTGDEEDTHRMVDPHAKMIFNGKEIHGREHISRWMKEIRIHELRVHSFRVIDGRLILEVELVGRFNGREDTIEVEIISEKVDGRWVVSSLTIR” registered a protease stability score of 1.29.

“TEDDELEKWATQLVKEVLETGDERLLENLADPNVRVEIGEKDSHGREEMLKDWKHMGIDHIHFEHSEFVGDFIDIHLVIHVNGKDLKQRIIILKIDGQWFLHSVHVE” returned a protease stability score of 1.75.

As to “TEDDELLHRAERLVYHSLLTGDFHTLKHLMDPHVRTHIDGRDTHGRDKATNFFIKYWEDLGVKHITYEDMHVHFFEGHLTVLLIVKLNIDGRERRNVYIFIFMKIDGKWLNHEVHIHIN”, the protease stability score came to 0.651.

The sequence “TEDDENAKMIMHLLYNHMKTGDFDTLVDMVDPHARNIIDGRELVGWEHFYRWLHELGFNHNELRVRDIKHFDGKVDVDVELILNVGDKHLRIRTTFIVRKVNGRWFIESIRLK” came in with a protease stability score of 1.38.

As for “TEDDEWFNEILRLMVEAMKTGDEHILERLLDPHVRIEINGKEIHGREEFVERLEEQQRKFKGIRHELEIKHTEVINGRAHIDGRLHIDVNGRRKIYRVELVILKIDGRWSVEEIRIH”, the protease stability score is 1.67.

Take “TEDDHKFEEAMRLWEHIEKTGDPHTASKMLDPNVRIYINGRELHGRHLFEHLEEHWLLELRLKHVQIQHIEVIDGRLEFDVEVNGQQGDKDIRMRVNVTVHKIDGRWFLKMVSFE”: the protease stability score is 0.705.

“TEDDKDWEEIYKMLEHASKTGDERIFNKFIDPNTMSVVNGVDLIGMERWRNHWEHARFRHIEFRHVEIIDGRLDIQGHLRGEYNGREIRTDMRLIILKIDGRWIHKSFEFH”: the protease stability score was 0.944.

For “TEDDRAFELSMRKWLESHRTGDEKTMHELLDPNARYHIGEFHLHGWKEADRLVREIRIHHVEDKHVEIQGDKIRIHTRVDITINGQKSSVELELVLVKVNGVWFVHSVILR”, the protease stability score turned out to be 1.8.

In the case of “TEDDRDFKLALELVEHHIKTGDEDDMSRLADPHVRIDDENETHHGREEFEEFVHRMIKRFKNIKWELKRTESQGDKIRIDFRIHVGDKTLRLIIIAEKVDGRWLIHTVIIN”, the protease stability score worked out at 1.35.

Sequence “TEDDRIFKEALELWVFAMNTGDERILFEMVDPHVRFVIGDKEYHGMEWRHKVLIELRIHRVRLEITHRDQFNGRIHIDGILQIDGEFNGRRDKTETEVRVTYTKFDGKWYYKEVIHL” yielded a protease stability score of 1.44.

“TEDEDIFRHALEVWLRSFLTGNEEILNHLFDPHARVHIDGKNLHGMEMMVTHRQRHIEEARIRDSDIEHKNVIDGRIHIDIRVHGEVNGQEMDFNVTIIAMKVDGRWLIHSLHVE”: the protease stability score worked out at 0.265.

In turn, “TEDEDRLTEMIEELLHALLTGDEKRKDELIDPHTKLDVNGRERHGMEEIKKNWRKLGVERIDLRVRERRIVNGVAHIRGDLHVGDKSMEVHIVFVKVDGRWIVHSFFIH” yielded a protease stability score of 1.31.

For the sequence “TEDEDVLKEATRLFVEALKTGDWDHMRRLIDPNARVTQGDKEIHGMEDTVKIRRHLYEKWGVERVEMRIHDMEYQGDKLKVDMELQIGDKHKRIELVLRKVDGQWIIERIRYT”, the protease stability score worked out at 0.528.
